These results are taken from patent US10745461B2, “Pulsed introduction of low-dose RANKL as a therapy for diet-induced atherosclerosis” (Saint Louis University, priority 2015, dated 2020).

Experiment [1] relates to FoxP3+ CD8 T-cells (TcREG). Nature of the experiment: In vivo TcREG induction: GFP negative CD8 T-cells adoptively transferred into OT-I Rag-/- mice. How it is done: FIGS. 1A, 1B and 1C indicate that TcREG are induced by activated osteoclasis. […] In the absence of RANK L treatment, very low level of conversion was observed after three days. […] ZA was administered intravenously one week prior to adoptive transfer of CD8 T-cells.
It was first determined the dose of RANKL that produced the maximal number FoxP3^+ CD8 T-cells in the bone marrow. RANKL was administered into FoxP3-GFP reporter mice at various doses for two consecutive days. Fifty hours after first dose, the mice were sacrificed and the numbers of CD8 T-cells that were GFP positive cells in the bone marrow were measured. […] The increased levels of FoxP3 in the bone marrow could either be due to recruitment of TcREG to the bone marrow or induction of FoxP3 expression in cells that were FoxP3 negative. To test for induction FACS sorted the GFP negative population of CD8 (Thy 1.2+ that were CD44 negative or naïve) from the spleens and bone marrow to high purity (FIG. 1C first panel) and adoptively transferred them into congenically marked (Thy 1.1) OT-I Rag^−/− mice. […] In the absence of RANKL administration low levels […] CD8 T-cell were detected (FIGS. 1B and C second panel), but RANKL administration (0.125 mg/kg) yielded ˜1% […] Thy 1.2 T-cells (FIGS. 1B and 1C third panel). […]

The test system of experiment [2] is FoxP3 induction in OT-I CD8 T-cells by osteoclasts. Nature of the experiment: TcREG (FoxP3) induction in OT-I CD8 T-cells co-cultured with bone marrow-derived osteoclasts. It is filed as cell-based, mice. The conditions noted are these: 10 ng/ml or 20 ng/ml TNFα, OVA. How it is done:
It was also determined that IL-17 and TNFα suppresses TcREG induction by osteoclasts. […] Another possibility is that loss of estrogen leads to increased production of the pro-inflammatory cytokines by T-cells that increase osteoclast activity. Without being limited to any method of operation, it is actually expected that in the presence of pro-inflammatory cytokines osteoclasts fail to induce TcREG. As estrogen depletion lead to greater number of osteoclasts because of a decreased Fas ligand expression, the loss of TcREG induction and increased osteoclast numbers would tip the balance towards increased osteoclast resorption and net bone loss. To test fir this possibility, OC-iTcREG induction was measured in the presence of IL-17 and TNFα. […] To understand the underlying mechanism of how TNFα affects osteoclasts' ability to induce TcREG, the signals provided by osteoclasts to induce FoxP3 in the CD8 T-cells were investigated along with if these signals were affected by […].
The most common and well-studied costimulatory signals on antigen-presenting cells are CD80 (B7.1) and CD86 (B7.2). As CD80/CD86 double knockout mice are commercially available, osteoclasts were generated from bone marrow precursors of these mice. The CD80/CD86 null osteoclasts (as well as wild-type controls) were then used to prime OT-I T-cells in the presence and absence of antigen. […] OT-I CD8 T-cells activated by CD80/CD86 null osteoclasts produced IL-6, IL-2 and IFN-γ to levels indistinguishable from wild-type mice (FIG. 4B). Having ruled out CD80/CD86 as the costimulatory molecules, an osteoclast microarray dataset was queried for other costimulatory molecules expressed by osteoclasts. Osteoclasts that express CD200 and c-Mer were found. The role of CD200 was chosen for testing based on the phenotype of CD200^−/− mice and the reported role for CD200 in regulating TcREG.
The most, well characterized regulator of FoxP3 in T-cells is TGFβ. It has been previously shown that neutralization or addition of TGFβ has no effect on the induction of TcREG. Therefore identification of other pathways that can regulate the FoxP3 promoter in T-cells was sought. A number of previous studies have identified that the Notch signaling contributes to FoxP3 induction. To test if Notch signaling is important for TcREG induction by osteoclasts, the γ-Secretase inhibitor DAPT was initially used. Ligation of the Notch receptor by its ligand leads to cleavage of Notch by γ-secretase. […] Next, we identified the Notch ligands expressed in osteoclasts using reverse-transcription followed by PCR. […] Of the four, the osteoclast-precursors (bone marrow cells treated with M-CSF but not RANKL) express all of the ligands except DLL4 (FIG. 5C). To assess the role of DLL4 in TcREG (soluble) DLL4-Fc was added to OT-I CD8 T-cells prior to co-culturing with osteoclasts. […] To assess the role of DLL4 in vivo the induction experiments as described in FIG. 1 were performed: GFP negative (polyclonal) CD8 T-cells were purified by cell sorting and transferred into OT-II Rag^−/− mice. Two hours prior to RANKL treatment, DLL4-Fc or a control IgG1-Fc, were injected intravenously into the recipient mice, As described for FIG. 1, RANKL (0.125 mg/kg) was then administered on two consecutive days.
DLL-4 expression is repressed in the presence of […] and IL-17 but can be de-repressed by RANKL. […]

Entries after “also recorded” stand apart in the source; their conditions may differ.

B1: receptor activator of NF-κB ligand (protein, UniProt O35235 139-316, looked up)
Tumor necrosis factor ligand …: FSGAPAMMEGSWLDVAQRGKPEAQPFAHLTINAASIPSGSHKVTLSSWYHDRGWAKISNMTLSNGKLRVNQDGFYYLYANICFRHHETSGSVPTDYLQLMVYVVKTSIKIPSSHNLMKGGSTKNWSGNSEFHFYSINVGGFFKLRAGEEISIQVSNPSLLDPDQDATYFGAFKVQDID
modifications: GST tag
On to B1, for which the “TcREG induction by RANKL” value in experiment [1] (0.125 mg/kg, 50 hrs after RANKL treatment, 3 days after T-cell transfer) was “robustly induced TcREG”. Moreover, in experiment [1] (RANKL 0.125 mg/kg, OT-I Rag-/- recipients), the “GFP+ Thy 1.2 T-cells after RANKL administration” value is roughly 1%. In addition, the “restoration of TcREG induction by additional RANKL in the presence of TNFα” value in experiment [2] is listed as “restores induction of TcREG; also recorded: the induction of TcREG was also restored”.
